Target: barrier-to-autointegration factor (BAF) (UniProt Q9VLU0)
Assay: GFP affinity purification, mass spectrometry
Details: reference: GFP-Ote wild type; sites S50,S54

Substance: otefin (Ote; emerin) (from UniProt P20240) GFP-OteAA (S50A S54A)
- binding against the reference: stronger

From paper PMC10353892
